Reference: the supplement of paper PMC9112550, “Optimization of the antimicrobial peptide Bac7 by deep mutational scanning” (BMC Biology, 2022)

System: Escherichia coli TOP10
Test: shrunken log2 fold change of peptide-encoding DNA abundance (4.5 h post-induction vs induction); higher = less antimicrobial activity (less host growth inhibition)
Settings: time post-induction: 4.5 h; library: site-saturation at positions 5, 18, 19, 20
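Further: peptides expressed intracellularly from a pBAD plasmid library in pooled LB shake-flask culture, induced with 0.3% L-arabinose, DNA abundance read by NGS, three biological replicates, DESeq2 with apeglm shrinkage.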

Sequence | shrunken log2 fold change
RRIRARPPRLPRPRPRPQIGPRP | 3.24
RRIRARPPRLPRPRPRPQKVPRP | 0.0196
RRIRARPPRLPRPRPRPQLSPRP | 0.329
RRIRARPPRLPRPRPRPQMCPRP | 0.00812
RRIRARPPRLPRPRPRPQMHPRP | 1.05
RRIRARPPRLPRPRPRPQNEPRP | -0.12
RRIRARPPRLPRPRPRPQNFPRP | -0.0953
RRIRARPPRLPRPRPRPQRFPRP | 0.0296
RRIRARPPRLPRPRPRPQRIPRP | 0.177
RRIRARPPRLPRPRPRPQRRPRP | 0.366
RRIRARPPRLPRPRPRPQSAPRP | 0.153
RRIRARPPRLPRPRPRPQTCPRP | 0.246
RRIRARPPRLPRPRPRPQTKPRP | 0.135
RRIRARPPRLPRPRPRPQVFPRP | 0.278
RRIRARPPRLPRPRPRPQVKPRP | 0.136
RRIRARPPRLPRPRPRPQVMPRP | -0.00224
RRIRARPPRLPRPRPRPQYKPRP | -0.303
RRIRARPPRLPRPRPRPQYLPRP | -0.204
RRIRARPPRLPRPRPRPQYYPRP | -0.452
RRIRARPPRLPRPRPRPRARPRP | 0.911
RRIRARPPRLPRPRPRPRASPRP | 0.797
RRIRARPPRLPRPRPRPRCAPRP | 0.716
RRIRARPPRLPRPRPRPRCEPRP | 0.416
RRIRARPPRLPRPRPRPRDGPRP | 1.3
RRIRARPPRLPRPRPRPREYPRP | 0.5

Sequence | shrunken log2 fold change
RRIRARPPRLPRPRPRPRFWPRP | 0.691
RRIRARPPRLPRPRPRPRGEPRP | 0.613
RRIRARPPRLPRPRPRPRGTPRP | 0.448
RRIRARPPRLPRPRPRPRGWPRP | 1.07
RRIRARPPRLPRPRPRPRHAPRP | 0.612
RRIRARPPRLPRPRPRPRIRPRP | 0.322
RRIRARPPRLPRPRPRPRKFPRP | 0.421
RRIRARPPRLPRPRPRPRLLPRP | 0.526
RRIRARPPRLPRPRPRPRLMPRP | 0.216
RRIRARPPRLPRPRPRPRMQPRP | 0.637
RRIRARPPRLPRPRPRPRMYPRP | 0.0922
RRIRARPPRLPRPRPRPRRQPRP | 0.453
RRIRARPPRLPRPRPRPRRRPRP | 0.888
RRIRARPPRLPRPRPRPRSSPRP | 0.188
RRIRARPPRLPRPRPRPRTTPRP | 0.755
RRIRARPPRLPRPRPRPRVAPRP | 0.46
RRIRARPPRLPRPRPRPRVLPRP | 0.189
RRIRARPPRLPRPRPRPRWSPRP | 0.53
RRIRARPPRLPRPRPRPRYKPRP | 0.0679
RRIRARPPRLPRPRPRPRYMPRP | -0.365
RRIRARPPRLPRPRPRPSAPPRP | 0.397
RRIRARPPRLPRPRPRPSCIPRP | -0.131
RRIRARPPRLPRPRPRPSDAPRP | 0.396
RRIRARPPRLPRPRPRPSEGPRP | -0.00533
RRIRARPPRLPRPRPRPSEIPRP | -0.00993

Sequence | shrunken log2 fold change
RRIRARPPRLPRPRPRPSFDPRP | 0.103
RRIRARPPRLPRPRPRPSFSPRP | -0.134
RRIRARPPRLPRPRPRPSGGPRP | 0.115
RRIRARPPRLPRPRPRPSGYPRP | 0.094
RRIRARPPRLPRPRPRPSLPPRP | 0.157
RRIRARPPRLPRPRPRPSLWPRP | 0.974
RRIRARPPRLPRPRPRPSNFPRP | -0.221
RRIRARPPRLPRPRPRPSNRPRP | -0.457
RRIRARPPRLPRPRPRPSNVPRP | -0.248
RRIRARPPRLPRPRPRPSPQPRP | 0.554
RRIRARPPRLPRPRPRPSQLPRP | 0.262
RRIRARPPRLPRPRPRPSQWPRP | 0.24
RRIRARPPRLPRPRPRPSSNPRP | 1.2
RRIRARPPRLPRPRPRPSTLPRP | 0.111
RRIRARPPRLPRPRPRPSYDPRP | -0.52
RRIRARPPRLPRPRPRPTAAPRP | 1.05
RRIRARPPRLPRPRPRPTDVPRP | 0.141
RRIRARPPRLPRPRPRPTDWPRP | 0.712
RRIRARPPRLPRPRPRPTECPRP | 0.0171
RRIRARPPRLPRPRPRPTEHPRP | 0.46
RRIRARPPRLPRPRPRPTEPPRP | 0.797
RRIRARPPRLPRPRPRPTEQPRP | 0.184
RRIRARPPRLPRPRPRPTFCPRP | 0.386
RRIRARPPRLPRPRPRPTIMPRP | 0.15
RRIRARPPRLPRPRPRPTLAPRP | 1.65

Sequence | shrunken log2 fold change
RRIRARPPRLPRPRPRPTLMPRP | 0.768
RRIRARPPRLPRPRPRPTNNPRP | 0.00693
RRIRARPPRLPRPRPRPTQPPRP | 0.228
RRIRARPPRLPRPRPRPTREPRP | 0.573
RRIRARPPRLPRPRPRPTRVPRP | 0.343
RRIRARPPRLPRPRPRPTSSPRP | 0.289
RRIRARPPRLPRPRPRPTVIPRP | 0.0535
RRIRARPPRLPRPRPRPTWAPRP | 0.621
RRIRARPPRLPRPRPRPTWNPRP | 0.279
RRIRARPPRLPRPRPRPTYCPRP | -0.119
RRIRARPPRLPRPRPRPVARPRP | 0.647
RRIRARPPRLPRPRPRPVDNPRP | 0.0773
RRIRARPPRLPRPRPRPVDSPRP | -0.0786
RRIRARPPRLPRPRPRPVESPRP | 0.986
RRIRARPPRLPRPRPRPVHTPRP | 0.375
RRIRARPPRLPRPRPRPVHYPRP | -0.198
RRIRARPPRLPRPRPRPVIEPRP | 0.362
RRIRARPPRLPRPRPRPVIFPRP | 0.0535
RRIRARPPRLPRPRPRPVKDPRP | 0.284
RRIRARPPRLPRPRPRPVLAPRP | 1.18
RRIRARPPRLPRPRPRPVNEPRP | 0.356
RRIRARPPRLPRPRPRPVNIPRP | -0.123
RRIRARPPRLPRPRPRPVPIPRP | 0.0735
RRIRARPPRLPRPRPRPVQIPRP | -0.0414
RRIRARPPRLPRPRPRPVRDPRP | 0.315

Sequence | shrunken log2 fold change
RRIRARPPRLPRPRPRPVRFPRP | 0.828
RRIRARPPRLPRPRPRPVRGPRP | 0.945
RRIRARPPRLPRPRPRPVSPPRP | 0.664
RRIRARPPRLPRPRPRPVTEPRP | 0.154
RRIRARPPRLPRPRPRPVTFPRP | 0.0573
RRIRARPPRLPRPRPRPVTKPRP | 0.128
RRIRARPPRLPRPRPRPVVPPRP | 0.496
RRIRARPPRLPRPRPRPVWFPRP | 0.334
RRIRARPPRLPRPRPRPWALPRP | 0.172
RRIRARPPRLPRPRPRPWEPPRP | 0.18
RRIRARPPRLPRPRPRPWETPRP | 4.22
RRIRARPPRLPRPRPRPWEYPRP | -0.00494
RRIRARPPRLPRPRPRPWFPPRP | -0.0966
RRIRARPPRLPRPRPRPWGGPRP | 0.605
RRIRARPPRLPRPRPRPWLAPRP | 0.162
RRIRARPPRLPRPRPRPWLYPRP | -0.0506
RRIRARPPRLPRPRPRPWNAPRP | -0.124
RRIRARPPRLPRPRPRPWPKPRP | 0.508
RRIRARPPRLPRPRPRPWPLPRP | -0.0297
RRIRARPPRLPRPRPRPWQEPRP | -0.0122
RRIRARPPRLPRPRPRPWQWPRP | -0.00151
RRIRARPPRLPRPRPRPWRQPRP | 0.0426
RRIRARPPRLPRPRPRPWRWPRP | 0.451
RRIRARPPRLPRPRPRPWSPPRP | 0.138
RRIRARPPRLPRPRPRPWTTPRP | 0.0452

Sequence | shrunken log2 fold change
RRIRARPPRLPRPRPRPWTWPRP | -0.327
RRIRARPPRLPRPRPRPWVTPRP | -0.127
RRIRARPPRLPRPRPRPWYRPRP | -0.099
RRIRARPPRLPRPRPRPYAAPRP | 0.375
RRIRARPPRLPRPRPRPYAKPRP | 0.249
RRIRARPPRLPRPRPRPYCFPRP | -0.178
RRIRARPPRLPRPRPRPYDLPRP | 0.0526
RRIRARPPRLPRPRPRPYEEPRP | -0.441
RRIRARPPRLPRPRPRPYFDPRP | -0.123
RRIRARPPRLPRPRPRPYFIPRP | -0.73
RRIRARPPRLPRPRPRPYFYPRP | -0.619
RRIRARPPRLPRPRPRPYGCPRP | -0.55
RRIRARPPRLPRPRPRPYGSPRP | -0.0423
RRIRARPPRLPRPRPRPYHIPRP | -0.356
RRIRARPPRLPRPRPRPYKFPRP | -0.279
RRIRARPPRLPRPRPRPYMFPRP | -0.262
RRIRARPPRLPRPRPRPYNEPRP | -0.524
RRIRARPPRLPRPRPRPYPLPRP | -0.127
RRIRARPPRLPRPRPRPYPTPRP | -0.0691
RRIRARPPRLPRPRPRPYQKPRP | -0.0277
RRIRARPPRLPRPRPRPYQNPRP | -0.559
RRIRARPPRLPRPRPRPYQYPRP | -0.352
RRIRARPPRLPRPRPRPYRDPRP | -0.761
RRIRARPPRLPRPRPRPYSFPRP | -0.0794
RRIRARPPRLPRPRPRPYSLPRP | -0.187
